Results taken from paper PMC8420772.

Biological target: SeMet-labeled MtMce4A_(39–140) (Mycobacterium tuberculosis H37Rv)
Experiment: crystal structure; SeMet-labeled protein, 7.5 mg ml^−1; 100 mM MES, 700 mM ammonium sulfate pH 6.0, 22°C; space group P6_(5), 3.6 Å, SAD phasing

“SeMet-labeled MtMce4A_(39–140) (domain or fragment)” showed a stoichiometry N of 2.
